The numbers were not newly measured in paper PMC1079850, which cites them from elsewhere.

The series concerns the target Tsr (Escherichia coli) (UniProt P02942). The series is described as follows: given as Ka.

CheR, sequence (P07364 whole entry): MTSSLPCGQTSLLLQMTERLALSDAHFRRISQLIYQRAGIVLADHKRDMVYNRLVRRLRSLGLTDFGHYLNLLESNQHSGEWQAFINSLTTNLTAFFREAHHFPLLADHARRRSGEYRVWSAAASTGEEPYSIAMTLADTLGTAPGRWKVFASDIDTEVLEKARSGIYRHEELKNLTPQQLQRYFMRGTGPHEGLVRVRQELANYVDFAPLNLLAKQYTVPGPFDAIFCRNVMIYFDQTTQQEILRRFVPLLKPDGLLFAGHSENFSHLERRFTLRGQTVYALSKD
Tsr (Escherichia coli), sequence (P02942 whole entry): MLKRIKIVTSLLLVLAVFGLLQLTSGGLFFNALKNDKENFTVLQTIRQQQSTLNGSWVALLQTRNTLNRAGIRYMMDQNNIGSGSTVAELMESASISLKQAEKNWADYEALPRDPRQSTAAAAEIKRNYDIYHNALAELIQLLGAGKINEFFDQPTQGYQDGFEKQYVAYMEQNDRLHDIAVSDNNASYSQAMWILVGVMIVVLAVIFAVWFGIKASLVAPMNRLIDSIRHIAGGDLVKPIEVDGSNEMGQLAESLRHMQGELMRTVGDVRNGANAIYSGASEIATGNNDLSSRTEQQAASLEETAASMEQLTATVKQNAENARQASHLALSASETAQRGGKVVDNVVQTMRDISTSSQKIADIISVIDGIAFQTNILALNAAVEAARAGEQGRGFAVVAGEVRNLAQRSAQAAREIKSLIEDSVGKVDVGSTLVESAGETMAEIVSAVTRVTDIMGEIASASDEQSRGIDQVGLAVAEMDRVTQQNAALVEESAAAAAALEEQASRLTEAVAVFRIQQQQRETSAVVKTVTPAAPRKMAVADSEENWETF

For the substance CheR (from UniProt P07364), the Kd (as a rule, the concentration at which binding is half-saturated) is 2.5 µM.
